{"source": "paper PMC9684555", "about": "“Structure- and computational-aided engineering of an oxidase to produce isoeugenol from a lignin-derived compound” (Nature Communications, 2022)", "proteins": {"B1": {"name": "S394V-EUGO5X mutant of eugenol oxidase (EUGO) from Rhodococcus jostii RHA1 (enzyme)", "chain": "MTRTLPPGVSDERFDAALQRFRDVVGDKWVLSTADELEAFRDPYPVGAAEANLPSAVVSPESTEQVQDIVRIANEYGIPLHPVSTGKNNGYGGAAPRLSGSVIVKTGERMNRILEVNEKYGYALLEPGVTYFDLYEYLQSHDSGLMLDCPDLGWGSVVGNTLDRGVGYTPYGDHFMWQTGLEVVLPQGEVMRTGMGALPGSDAWQLFPYGFGPFPDGMFTQSNLGIVTKMGIALMQRPPASQSFLITFDKEEDLEQIVDIMLPLRINMAPLQNVPVLRNIFMDAAAVSKRTEWFDGDGPMPAEAIERMKKDLDLGFWNFYGTLYGPPPLIEMYYGMIKEAFGKIPGARFFTHEERDDRGGHVLQDRHKINNGIPSLDELQLLDWVPNGGHIGFVPVSAPDGREAMKQFEMVRNRANEYNKDYMAQFIIGLREMYHVCLFIYDTADPEAREEILQMTKVLVREAAEAGYGEYRTHNALMDDVMATFNWGDGALLKFHEKIKDALDPNGIIAPGKSGIWPQRFRGQNL", "modifications": "covalently bound FAD cofactor", "notes": "eugenol oxidase (EUGO), Rhodococcus jostii RHA1, UniProt Q0SBK1; EUGO5X = S81H, A423M, H434Y, I445D, S518P, with S394V added; Tag-less protein after SUMO protease; crystals were soaked with 4-n-propylguaiacol; also called sixfold mutant S394V-EUGO5X; source: E. coli, from pBAD-His-Sumo-S394V-EUGO5X, purified (HisTrap, SUMO protease, reverse nickel, Superdex 200)"}}, "target": "the molecule itself", "assay": "crystal structure; sitting-drop vapor diffusion at 20 °C; crystals soaked 1 h with 5 mM 4-n-propylguaiacol; 2.9 Å; eight subunits in the asymmetric unit", "data": [{"protein": "B1", "values": [{"measurement": "stoichiometry N", "value": 2}]}]}
